Laboratory results as given in the supplement of paper PMC10065799, “High-throughput profiling of sequence recognition by tyrosine kinases and SH2 domains using bacterial peptide display” (eLife, 2023).

biological target: MERTK (UniProt Q12866); experiment: phosphorylation enrichment, bacterial display (enrichment ratio); higher = better substrate or ligand; peptides without Tyr show the background
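Note: 11-residue human phosphosite peptides and single-mutation variants displayed on the E. coli surface, counted by deep sequencing, each peptide's frequency after selection divided by its frequency in the unselected input library; frequency after pTyr selection over input frequency; kinase dosed for 20-30% of maximal phosphorylation in three min.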

MERTK, sequence (Q12866 whole entry, looked up): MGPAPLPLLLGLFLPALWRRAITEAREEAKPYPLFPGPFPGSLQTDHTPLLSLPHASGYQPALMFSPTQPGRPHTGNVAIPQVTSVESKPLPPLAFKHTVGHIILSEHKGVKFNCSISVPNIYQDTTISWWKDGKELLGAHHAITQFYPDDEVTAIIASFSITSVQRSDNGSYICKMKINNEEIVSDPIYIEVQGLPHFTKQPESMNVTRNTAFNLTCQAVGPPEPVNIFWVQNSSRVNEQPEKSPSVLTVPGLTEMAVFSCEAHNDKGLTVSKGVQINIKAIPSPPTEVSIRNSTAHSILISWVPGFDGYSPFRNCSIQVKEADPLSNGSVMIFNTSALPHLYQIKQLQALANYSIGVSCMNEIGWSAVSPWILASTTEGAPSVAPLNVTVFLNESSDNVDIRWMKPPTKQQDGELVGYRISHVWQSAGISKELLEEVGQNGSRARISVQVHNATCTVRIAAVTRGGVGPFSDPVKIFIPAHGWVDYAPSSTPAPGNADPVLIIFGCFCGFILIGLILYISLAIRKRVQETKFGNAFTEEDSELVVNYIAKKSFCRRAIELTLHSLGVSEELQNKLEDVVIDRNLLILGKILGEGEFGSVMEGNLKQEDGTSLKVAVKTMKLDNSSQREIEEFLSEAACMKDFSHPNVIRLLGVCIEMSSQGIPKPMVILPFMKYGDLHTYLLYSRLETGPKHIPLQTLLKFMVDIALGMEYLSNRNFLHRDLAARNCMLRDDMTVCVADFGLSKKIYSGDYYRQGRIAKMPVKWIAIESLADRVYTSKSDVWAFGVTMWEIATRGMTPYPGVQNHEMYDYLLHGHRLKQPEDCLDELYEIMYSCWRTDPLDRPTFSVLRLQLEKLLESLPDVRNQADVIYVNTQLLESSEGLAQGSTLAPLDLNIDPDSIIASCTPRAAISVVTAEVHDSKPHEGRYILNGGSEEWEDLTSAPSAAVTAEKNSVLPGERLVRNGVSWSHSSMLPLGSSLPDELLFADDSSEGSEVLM

First: YCRHNYGAVES [HLA-DRB1_Y112_V114A]
Second: LHQSTYQRFDV [SLC7A14_Y693_YF]
The phosphorylation enrichment of the first is lower: 0.549 for the first, 1.19 for the second.

First: LIHLHYIRKDY [BBS4_Y43]
Second: REAMEYLESKQ [BTK_Y511_C506R]
The phosphorylation enrichment of the first is lower: 0.377 for the first, 0.501 for the second.

Compared with RAILNYIASKY [GSTA3_Y74], SVGGLYRDMGA [CBX8_Y321_G317V] is higher in phosphorylation enrichment: 0.466 for the first, 0.483 for the second.

Compared with FAELMYTGFWH [ASS1_Y322_V321M], CLLHCYFSQIH [MCM3AP_Y873_R878H] is lower in phosphorylation enrichment: 7.12 for the first, 0.431 for the second.

Compared with TDHLRYFDSNK [ARAP1_Y359], KDDEKYLDVIR [MTM1_Y260] is lower in phosphorylation enrichment: 0.466 for the first, 0.434 for the second.

First: IINENYDYLKG [NUP98_Y1664]
Second: GGGCGYNRSSG [FUS_Y232_G230C]
The phosphorylation enrichment of the first is higher: 0.491 for the first, 0.412 for the second.

Going from NNIDFYKKTTN [FGFR2_Y657_YF] to PLDGEYFTPQI [TP53_Y327_L330P], the phosphorylation enrichment rises from 0.364 to 0.474.

First: AIQDAYMHITS [ADCY10_Y318]
Second: TQKLAYVELQQ [CENPF_Y700_M701V]
The phosphorylation enrichment of the first is higher: 0.542 for the first, 0.395 for the second.

Compared with EVDELYREAPI [MYL12B_Y143], RLSPEYKQNEI [GJB1_Y243] is higher in phosphorylation enrichment: 0.598 for the first, 0.621 for the second.

Compared with ELTAKYLNYYR [P3H4_Y181_Q186R], REGAKYVSHGA [ASS1_Y113] is lower in phosphorylation enrichment: 0.496 for the first, 0.403 for the second.

Compared with RYVTRHIYNRE [HLA-DQB1_Y62_Y62H], SFGESYDNSKS [MAN1B1_Y60_N59S] is lower in phosphorylation enrichment: 0.857 for the first, 0.502 for the second.

Compared with LLANAYIFVVQ [L1CAM_Y418_YF], PDMHSYMVRFN [GRIN2D_Y732_YF] is higher in phosphorylation enrichment: 0.482 for the first, 0.651 for the second.

Going from KAPPTYDTVLQ [CYP3A4_Y347] to HHLSTYTKMLF [CHST8_Y251_R247H], the phosphorylation enrichment falls from 1.89 to 0.541.

First: NMRSTYAKLAA [SEC22B_Y193_H190R]
Second: LASLIYNFVLF [AQP6_Y231]
The phosphorylation enrichment of the first is lower: 0.49 for the first, 7.85 for the second.

VNCHQYDGLVG [ATP2A2_Y407_E412G] and AAGGRYDGLLG [HARS2_Y364_V368L] are the same in phosphorylation enrichment: 0.451 for the first, 0.451 for the second.

First: YGIAQYCCRMG [LRRK2_Y2023]
Second: LHQSTYQRYDV [SLC7A14_Y693]
The phosphorylation enrichment of the first is higher: 4.29 for the first, 0.364 for the second.

Sequence CPTIHYNFMCN [TP53_Y234_T230P_YF] has a phosphorylation enrichment of 0.501.

system: c-Src; experiment: as above

Compared with YCRHNYGAVES [HLA-DRB1_Y112_V114A], LHQSTYQRFDV [SLC7A14_Y693_YF] is higher in phosphorylation enrichment: 0.503 for the first, 2.69 for the second.

First: LIHLHYIRKDY [BBS4_Y43]
Second: REAMEYLESKQ [BTK_Y511_C506R]
The phosphorylation enrichment of the first is lower: 0.393 for the first, 0.701 for the second.

Compared with RAILNYIASKY [GSTA3_Y74], SVGGLYRDMGA [CBX8_Y321_G317V] is lower in phosphorylation enrichment: 0.81 for the first, 0.385 for the second.

Going from FAELMYTGFWH [ASS1_Y322_V321M] to CLLHCYFSQIH [MCM3AP_Y873_R878H], the phosphorylation enrichment falls from 6.43 to 0.476.

Compared with TDHLRYFDSNK [ARAP1_Y359], KDDEKYLDVIR [MTM1_Y260] is lower in phosphorylation enrichment: 0.41 for the first, 0.409 for the second.

First: IINENYDYLKG [NUP98_Y1664]
Second: GGGCGYNRSSG [FUS_Y232_G230C]
The phosphorylation enrichment of the first is higher: 0.469 for the first, 0.435 for the second.

First: NNIDFYKKTTN [FGFR2_Y657_YF]
Second: PLDGEYFTPQI [TP53_Y327_L330P]
The phosphorylation enrichment of the first is lower: 0.422 for the first, 0.434 for the second.

Going from AIQDAYMHITS [ADCY10_Y318] to TQKLAYVELQQ [CENPF_Y700_M701V], the phosphorylation enrichment rises from 0.483 to 0.525.

First: EVDELYREAPI [MYL12B_Y143]
Second: RLSPEYKQNEI [GJB1_Y243]
The phosphorylation enrichment of the first is lower: 0.52 for the first, 0.72 for the second.

First: ELTAKYLNYYR [P3H4_Y181_Q186R]
Second: REGAKYVSHGA [ASS1_Y113]
The phosphorylation enrichment of the first is higher: 0.374 for the first, 0.275 for the second.

Compared with RYVTRHIYNRE [HLA-DQB1_Y62_Y62H], SFGESYDNSKS [MAN1B1_Y60_N59S] is lower in phosphorylation enrichment: 0.874 for the first, 0.508 for the second.

Compared with LLANAYIFVVQ [L1CAM_Y418_YF], PDMHSYMVRFN [GRIN2D_Y732_YF] is higher in phosphorylation enrichment: 0.538 for the first, 1.15 for the second.

Going from KAPPTYDTVLQ [CYP3A4_Y347] to HHLSTYTKMLF [CHST8_Y251_R247H], the phosphorylation enrichment falls from 1.44 to 0.71.

Going from NMRSTYAKLAA [SEC22B_Y193_H190R] to LASLIYNFVLF [AQP6_Y231], the phosphorylation enrichment rises from 0.444 to 7.23.

Compared with VNCHQYDGLVG [ATP2A2_Y407_E412G], AAGGRYDGLLG [HARS2_Y364_V368L] is lower in phosphorylation enrichment: 0.559 for the first, 0.468 for the second.

First: YGIAQYCCRMG [LRRK2_Y2023]
Second: LHQSTYQRYDV [SLC7A14_Y693]
The phosphorylation enrichment of the first is lower: 0.665 for the first, 1.11 for the second.

In the case of CPTIHYNFMCN [TP53_Y234_T230P_YF], the phosphorylation enrichment is reported as 0.603.

biological target: FGFR1 (UniProt P11362); experiment: as above
Sequence (P11362 whole entry, looked up): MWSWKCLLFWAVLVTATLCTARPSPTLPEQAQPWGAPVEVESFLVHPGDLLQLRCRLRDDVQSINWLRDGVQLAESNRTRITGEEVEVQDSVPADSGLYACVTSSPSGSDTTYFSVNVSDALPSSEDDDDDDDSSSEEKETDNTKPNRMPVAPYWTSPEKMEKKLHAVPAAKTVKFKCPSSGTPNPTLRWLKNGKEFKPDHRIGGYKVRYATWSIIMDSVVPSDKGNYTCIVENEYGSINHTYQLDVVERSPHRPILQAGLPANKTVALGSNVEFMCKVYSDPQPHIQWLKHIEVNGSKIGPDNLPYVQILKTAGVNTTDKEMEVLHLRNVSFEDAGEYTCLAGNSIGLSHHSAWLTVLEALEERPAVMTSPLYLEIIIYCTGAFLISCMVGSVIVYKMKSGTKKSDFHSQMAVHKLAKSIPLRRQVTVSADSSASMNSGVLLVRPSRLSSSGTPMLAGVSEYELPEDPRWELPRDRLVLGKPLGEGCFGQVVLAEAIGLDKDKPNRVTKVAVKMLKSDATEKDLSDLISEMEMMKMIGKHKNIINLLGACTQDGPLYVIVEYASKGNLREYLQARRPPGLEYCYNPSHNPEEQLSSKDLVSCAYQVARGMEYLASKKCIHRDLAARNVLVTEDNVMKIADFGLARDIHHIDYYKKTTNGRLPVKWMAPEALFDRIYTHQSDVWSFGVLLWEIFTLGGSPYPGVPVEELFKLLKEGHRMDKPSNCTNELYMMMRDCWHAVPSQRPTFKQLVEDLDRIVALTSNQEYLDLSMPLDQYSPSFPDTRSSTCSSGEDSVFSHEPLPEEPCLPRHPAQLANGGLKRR

First: YCRHNYGAVES [HLA-DRB1_Y112_V114A]
Second: LHQSTYQRFDV [SLC7A14_Y693_YF]
The phosphorylation enrichment of the first is lower: 0.519 for the first, 1.14 for the second.

Going from LIHLHYIRKDY [BBS4_Y43] to REAMEYLESKQ [BTK_Y511_C506R], the phosphorylation enrichment rises from 0.517 to 0.754.

Going from RAILNYIASKY [GSTA3_Y74] to SVGGLYRDMGA [CBX8_Y321_G317V], the phosphorylation enrichment falls from 0.652 to 0.541.

Compared with FAELMYTGFWH [ASS1_Y322_V321M], CLLHCYFSQIH [MCM3AP_Y873_R878H] is lower in phosphorylation enrichment: 2.32 for the first, 0.689 for the second.

Going from TDHLRYFDSNK [ARAP1_Y359] to KDDEKYLDVIR [MTM1_Y260], the phosphorylation enrichment rises from 0.414 to 0.453.

First: IINENYDYLKG [NUP98_Y1664]
Second: GGGCGYNRSSG [FUS_Y232_G230C]
The phosphorylation enrichment of the first is higher: 0.535 for the first, 0.448 for the second.

Going from NNIDFYKKTTN [FGFR2_Y657_YF] to PLDGEYFTPQI [TP53_Y327_L330P], the phosphorylation enrichment rises from 0.338 to 3.09.

Compared with AIQDAYMHITS [ADCY10_Y318], TQKLAYVELQQ [CENPF_Y700_M701V] is higher in phosphorylation enrichment: 0.576 for the first, 0.754 for the second.

First: EVDELYREAPI [MYL12B_Y143]
Second: RLSPEYKQNEI [GJB1_Y243]
The phosphorylation enrichment of the first is higher: 0.86 for the first, 0.481 for the second.

Compared with ELTAKYLNYYR [P3H4_Y181_Q186R], REGAKYVSHGA [ASS1_Y113] is lower in phosphorylation enrichment: 0.498 for the first, 0.385 for the second.

First: RYVTRHIYNRE [HLA-DQB1_Y62_Y62H]
Second: SFGESYDNSKS [MAN1B1_Y60_N59S]
The phosphorylation enrichment of the first is lower: 0.291 for the first, 0.493 for the second.

Compared with LLANAYIFVVQ [L1CAM_Y418_YF], PDMHSYMVRFN [GRIN2D_Y732_YF] is lower in phosphorylation enrichment: 1 for the first, 0.711 for the second.

Compared with KAPPTYDTVLQ [CYP3A4_Y347], HHLSTYTKMLF [CHST8_Y251_R247H] is higher in phosphorylation enrichment: 0.36 for the first, 0.714 for the second.

First: NMRSTYAKLAA [SEC22B_Y193_H190R]
Second: LASLIYNFVLF [AQP6_Y231]
The phosphorylation enrichment of the first is lower: 0.359 for the first, 3.53 for the second.

Going from VNCHQYDGLVG [ATP2A2_Y407_E412G] to AAGGRYDGLLG [HARS2_Y364_V368L], the phosphorylation enrichment falls from 0.559 to 0.457.

First: YGIAQYCCRMG [LRRK2_Y2023]
Second: LHQSTYQRYDV [SLC7A14_Y693]
The phosphorylation enrichment of the first is higher: 0.605 for the first, 0.236 for the second.

For CPTIHYNFMCN [TP53_Y234_T230P_YF], the phosphorylation enrichment was 0.687.

biological target: FGFR3 (UniProt P22607); experiment: as above
Sequence (P22607 whole entry, looked up): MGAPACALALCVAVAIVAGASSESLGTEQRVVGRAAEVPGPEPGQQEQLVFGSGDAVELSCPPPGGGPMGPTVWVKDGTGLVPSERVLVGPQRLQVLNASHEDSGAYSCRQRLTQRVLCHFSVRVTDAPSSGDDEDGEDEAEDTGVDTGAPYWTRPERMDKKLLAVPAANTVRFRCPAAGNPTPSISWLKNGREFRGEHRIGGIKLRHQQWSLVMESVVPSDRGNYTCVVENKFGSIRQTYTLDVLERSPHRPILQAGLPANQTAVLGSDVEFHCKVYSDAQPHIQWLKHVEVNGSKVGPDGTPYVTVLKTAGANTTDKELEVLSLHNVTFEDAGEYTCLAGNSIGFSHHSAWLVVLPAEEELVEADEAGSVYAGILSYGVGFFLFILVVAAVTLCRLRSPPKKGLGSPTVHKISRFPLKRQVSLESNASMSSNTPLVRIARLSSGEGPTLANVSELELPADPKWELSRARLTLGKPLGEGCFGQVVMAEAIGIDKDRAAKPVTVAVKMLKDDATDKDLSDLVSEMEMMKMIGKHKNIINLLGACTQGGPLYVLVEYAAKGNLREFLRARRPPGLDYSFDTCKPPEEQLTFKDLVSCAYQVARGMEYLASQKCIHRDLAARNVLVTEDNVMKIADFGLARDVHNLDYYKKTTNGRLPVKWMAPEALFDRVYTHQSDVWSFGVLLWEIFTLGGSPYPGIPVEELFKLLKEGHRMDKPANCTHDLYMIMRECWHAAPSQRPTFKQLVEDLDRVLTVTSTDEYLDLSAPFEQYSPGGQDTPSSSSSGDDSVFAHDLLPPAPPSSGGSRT

Compared with YCRHNYGAVES [HLA-DRB1_Y112_V114A], LHQSTYQRFDV [SLC7A14_Y693_YF] is higher in phosphorylation enrichment: 0.659 for the first, 1.18 for the second.

First: LIHLHYIRKDY [BBS4_Y43]
Second: REAMEYLESKQ [BTK_Y511_C506R]
The phosphorylation enrichment of the first is lower: 0.763 for the first, 0.794 for the second.

First: RAILNYIASKY [GSTA3_Y74]
Second: SVGGLYRDMGA [CBX8_Y321_G317V]
The phosphorylation enrichment of the first is higher: 0.89 for the first, 0.561 for the second.

Going from FAELMYTGFWH [ASS1_Y322_V321M] to CLLHCYFSQIH [MCM3AP_Y873_R878H], the phosphorylation enrichment falls from 2.02 to 0.736.

Compared with TDHLRYFDSNK [ARAP1_Y359], KDDEKYLDVIR [MTM1_Y260] is higher in phosphorylation enrichment: 0.573 for the first, 0.663 for the second.

Compared with IINENYDYLKG [NUP98_Y1664], GGGCGYNRSSG [FUS_Y232_G230C] is lower in phosphorylation enrichment: 0.518 for the first, 0.465 for the second.

First: NNIDFYKKTTN [FGFR2_Y657_YF]
Second: PLDGEYFTPQI [TP53_Y327_L330P]
The phosphorylation enrichment of the first is lower: 0.467 for the first, 2.19 for the second.

Compared with AIQDAYMHITS [ADCY10_Y318], TQKLAYVELQQ [CENPF_Y700_M701V] is higher in phosphorylation enrichment: 0.523 for the first, 0.643 for the second.

Compared with EVDELYREAPI [MYL12B_Y143], RLSPEYKQNEI [GJB1_Y243] is lower in phosphorylation enrichment: 1.11 for the first, 0.446 for the second.

Compared with ELTAKYLNYYR [P3H4_Y181_Q186R], REGAKYVSHGA [ASS1_Y113] is lower in phosphorylation enrichment: 0.541 for the first, 0.501 for the second.

Going from RYVTRHIYNRE [HLA-DQB1_Y62_Y62H] to SFGESYDNSKS [MAN1B1_Y60_N59S], the phosphorylation enrichment rises from 0.525 to 0.595.

Compared with LLANAYIFVVQ [L1CAM_Y418_YF], PDMHSYMVRFN [GRIN2D_Y732_YF] is lower in phosphorylation enrichment: 1.18 for the first, 0.807 for the second.

Compared with KAPPTYDTVLQ [CYP3A4_Y347], HHLSTYTKMLF [CHST8_Y251_R247H] is higher in phosphorylation enrichment: 0.483 for the first, 1.05 for the second.

Going from NMRSTYAKLAA [SEC22B_Y193_H190R] to LASLIYNFVLF [AQP6_Y231], the phosphorylation enrichment rises from 0.403 to 3.34.

First: VNCHQYDGLVG [ATP2A2_Y407_E412G]
Second: AAGGRYDGLLG [HARS2_Y364_V368L]
The phosphorylation enrichment of the first is higher: 0.673 for the first, 0.531 for the second.

First: YGIAQYCCRMG [LRRK2_Y2023]
Second: LHQSTYQRYDV [SLC7A14_Y693]
The phosphorylation enrichment of the first is higher: 0.583 for the first, 0.426 for the second.

With CPTIHYNFMCN [TP53_Y234_T230P_YF] the phosphorylation enrichment was 0.79.
